Assay results: the supplement of paper PMC9233669
This sample holds only a part of the variants without activity.

Key:
biotinyl-Met-oxazolone = experiment: self-aminoacylation, catalytic enhancement (BMO) (fold over background); higher = more active; k-Seq, kA / k0A0; sequences stand for … in GGGAAUGGAUCCACAUCUACGAAUUC…UUCACUGCAGACUUGACGAAGCUG
Procedure, shortened: (§1)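 Mutagenized RNA pools (0.43 μM; 21-nt variable region) were treated with 2–1250 μM of each biotinyl-aminoacyl-oxazolone. Conditions were 50 μL HEPES/NaCl/KCl/MgCl2/CaCl2 buffer, 5% acetonitrile, pH 6.9–7.0, room temperature, 90 minutes. Catalytic enhancement, the median kA relative to the uncatalyzed rate, was derived from streptavidin capture, qPCR and Illumina sequencing.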

biotinyl-Val-oxazolone = experiment: self-aminoacylation, catalytic enhancement (BVO) (fold over background); higher = more active; k-Seq, kA / k0A0; sequences stand for … in GGGAAUGGAUCCACAUCUACGAAUUC…UUCACUGCAGACUUGACGAAGCUG
Procedure, shortened: as §1

biotinyl-Phe-oxazolone = experiment: self-aminoacylation, catalytic enhancement (BFO) (fold over background); higher = more active; k-Seq, kA / k0A0; sequences stand for … in GGGAAUGGAUCCACAUCUACGAAUUC…UUCACUGCAGACUUGACGAAGCUG
Procedure, shortened: as §1

biotinyl-Leu-oxazolone = experiment: self-aminoacylation, catalytic enhancement (BLO) (fold over background); higher = more active; k-Seq, kA / k0A0; sequences stand for … in GGGAAUGGAUCCACAUCUACGAAUUC…UUCACUGCAGACUUGACGAAGCUG
Procedure, shortened: as §1

biotinyl-Ile-oxazolone = experiment: self-aminoacylation, catalytic enhancement (BIO) (fold over background); higher = more active; k-Seq, kA / k0A0; sequences stand for … in GGGAAUGGAUCCACAUCUACGAAUUC…UUCACUGCAGACUUGACGAAGCUG
Procedure, shortened: as §1

biotinyl-Trp-oxazolone = experiment: self-aminoacylation, catalytic enhancement (BWO) (fold over background); higher = more active; k-Seq, kA / k0A0; sequences stand for … in GGGAAUGGAUCCACAUCUACGAAUUC…UUCACUGCAGACUUGACGAAGCUG
Procedure, shortened: as §1

| Sequence | self-aminoacylation (biotinyl-Met-oxazolone) | self-aminoacylation (biotinyl-Val-oxazolone) | self-aminoacylation (biotinyl-Phe-oxazolone) | self-aminoacylation (biotinyl-Leu-oxazolone) | self-aminoacylation (biotinyl-Ile-oxazolone) | self-aminoacylation (biotinyl-Trp-oxazolone) |
| --- | --- | --- | --- | --- | --- | --- |
| AUUCAAAUAGGUCAUCGGGUG [Fam2.2 aminoacylation ribozyme variant] | 5.54 | 3.38 | 40.1 | 7.01 | 3.9 | 5.77 |
| AUUCAACUACGUCAUCGGGUG [Fam2.2 aminoacylation ribozyme variant] | 4.57 | 2.95 | 26 | 6.07 | 3.26 | 4.72 |
| AUUCAACUAGGUCACCGGGUG [Fam2.2 aminoacylation ribozyme variant] | 5.89 | 4.37 | 38.8 | 6.53 | 4.11 | 5.05 |
| AUUCAACUAGGUCAUCCGGUG [Fam2.2 aminoacylation ribozyme variant] | 5.49 | 3.72 | 45.8 | 8.12 | 4.6 | 6.62 |
| AUUCAACUAGGUCAUCGGCUG [Fam2.2 aminoacylation ribozyme variant] | 1.91 | 1.75 | 5.81 | 1.46 | 1.57 | 1.45 |
| AUUCAACUAGGUCAUCGGGAG [Fam2.2 aminoacylation ribozyme variant] | 1.23 | 0.961 | 0.48 | 0.899 | 0.943 | 1.05 |
| AUUCAACUAGGUCAUCUGGUG [Fam2.2 aminoacylation ribozyme variant] | 2.55 | 1.85 | 17.7 | 3.55 | 1.9 | 2.54 |
| AUUCAACUAGGUCAUUGGGUG [Fam2.2 aminoacylation ribozyme variant] | 3.46 | 2.19 | 23.7 | 4.71 | 2.3 | 3.66 |
| AUUCAACUAUGUCAUCGGGUG [Fam2.2 aminoacylation ribozyme variant] | 4.78 | 2.45 | 33.1 | 6.15 | 3.08 | 4.57 |
| AUUCACAAAGGUCAUCGGGUG [Fam2.2 aminoacylation ribozyme variant] | 9.76 | 5.83 | 84.3 | 12.2 | 5.84 | 8.7 |
| AUUCACACAGGUCAUCGGGUG [Fam2.2 aminoacylation ribozyme variant] | 5.6 | 4.47 | 39.6 | 7.14 | 4.03 | 5.26 |
| AUUCACAUAGGCCAUCGGGUG [Fam2.2 aminoacylation ribozyme variant] | 4.86 | 3.41 | 34.7 | 5.85 | 3.23 | 4.23 |
| AUUCACAUAGGUCAUCGGCUG [Fam2.2 aminoacylation ribozyme variant] | 1.64 | 1.78 | 7.68 | 1.61 | 1.72 | 1.89 |
| AUUCACAUAGGUCAUCGGGAG [Fam2.2 aminoacylation ribozyme variant] | 1.13 | 1.19 | 0.953 | 0.985 | 1 | 1.76 |
| AUUCACAUUGGUCAUCGGGUG [Fam2.2 aminoacylation ribozyme variant] | 10.1 | 5.97 | 82.8 | 12.8 | 6.31 | 8.88 |
| AUUCACCAAGAUCAUCGGGUG [Fam2.2 aminoacylation ribozyme variant] | 4.4 | 3.21 | 33.2 | 5.42 | 3.1 | 4.68 |
| AUUCACCAAGGGCAUCGGGUG [Fam2.2 aminoacylation ribozyme variant] | 5.2 | 5.01 | 35.1 | 6.01 | 4.37 | 4.74 |
| AUUCACCAAGGUAAUCGGGUG [Fam2.2 aminoacylation ribozyme variant] | 5.69 | 3.19 | 42.2 | 7.71 | 3.5 | 4.8 |
| AUUCACCAAGGUCAGCGGGUG [Fam2.2 aminoacylation ribozyme variant] | 4.83 | 3.95 | 29.3 | 5.4 | 4.01 | 4.65 |
| AUUCACCAAGGUCAUCGGAUG [Fam2.2 aminoacylation ribozyme variant] | 0.703 | 1.17 | 1.12 | 0.794 | 1.09 | 0.726 |
| AUUCACCAAGGUCAUCGGGAG [Fam2.2 aminoacylation ribozyme variant] | 1.19 | 1.11 | 4.38 | 1.57 | 1.36 | 1.27 |
| AUUCACCAAGGUCAUCGGGUG [Fam2.2 aminoacylation ribozyme variant] | 9.68 | 5.71 | 75.8 | 12.3 | 5.52 | 8.61 |
| AUUCACCAAGGUGAUCGGGUG [Fam2.2 aminoacylation ribozyme variant] | 3.28 | 2.98 | 17.6 | 4.13 | 2.63 | 4.15 |
| AUUCACCAAGUUCAUCGGGUG [Fam2.2 aminoacylation ribozyme variant] | 3.58 | 2.89 | 19.8 | 4.31 | 3.06 | 4.14 |
| AUUCACCAGGGUCAUCGGGUG [Fam2.2 aminoacylation ribozyme variant] | 7.51 | 5.45 | 57.5 | 9.42 | 4.8 | 6.99 |
